{"source": "paper PMC10462110", "about": "(bioRxiv, 2023)", "key": {"[1]": {"target": "GFP-tagged tauC3 S416E, doxycycline-inducible in HEK293 Flp-In T-REx cells", "test": "co-IP"}, "[2]": {"target": "Recombinant human CHIP (C-terminus of Hsc70 interacting protein; STUB1) (human) (UniProt Q9UNE7)", "test": "ELISA"}, "[3]": {"target": "CHIP (UniProt Q9UNE7)", "test": "differential scanning fluorimetry of CHIP", "conditions": "reference: WT peptide; sites S416"}, "[4]": {"target": "CHIP (UniProt Q9UNE7)", "test": "co-IP with anti-Tau-5, CHIP blot", "conditions": "reference: GFP-tauC3; sites S416"}, "[5]": {"target": "Recombinant human CHIP (C-terminus of Hsc70 interacting protein; STUB1) (human) (UniProt Q9UNE7)", "test": "ELISA", "remark": "listed apart in the source"}, "[6]": {"target": "CHIP, NanoBiT fusion expressed in HEK293T cells (UniProt Q9UNE7)", "test": "split reporter"}, "[7]": {"target": "T1, Recombinant human CHIP (C-terminus of Hsc70 interacting protein; STUB1) (human, UniProt Q9UNE7 1-303)", "T1 sequence (looked up)": "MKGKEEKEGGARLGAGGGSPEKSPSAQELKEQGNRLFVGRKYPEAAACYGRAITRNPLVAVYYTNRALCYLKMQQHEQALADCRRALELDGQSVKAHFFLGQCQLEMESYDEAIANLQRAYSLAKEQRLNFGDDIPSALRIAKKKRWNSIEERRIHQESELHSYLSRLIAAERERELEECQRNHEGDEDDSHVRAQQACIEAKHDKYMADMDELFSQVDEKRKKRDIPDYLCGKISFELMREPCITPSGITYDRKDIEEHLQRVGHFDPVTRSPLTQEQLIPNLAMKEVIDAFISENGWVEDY", "test": "fluorescence polarisation"}, "[8]": {"target": "T2, CHIP D134A (human, UniProt Q9UNE7 1-303, D134A)", "T2 sequence (looked up)": "T1 sequence (looked up) with D134A", "test": "fluorescence polarisation"}, "[9]": {"target": "T3, CHIP F131A (human, UniProt Q9UNE7 1-303, F131A)", "T3 sequence (looked up)": "T1 sequence (looked up) with F131A", "test": "differential scanning fluorimetry"}, "[10]": {"target": "T2, CHIP D134A", "test": "differential scanning fluorimetry"}}, "note": "Positions count from the first letter of the chain named. Read-outs that look alike come from different tables or passages of the source. Where no end group is shown, it is not given here. [ ]: non-standard residue; d: D form. pS = N[C@@H](COP(=O)(O)O)C(=O)O", "data": [{"molecule": "endogenous CHIP (from UniProt Q9UNE7 1-303) (enzyme)", "values": [{"measurement": "relative amount of CHIP bound (normalized to tauC3)", "setting": "[1]", "result": 0.55}]}, {"molecule": "natively phosphorylated tauC3 (p.tauC3) from Sf9 insect cells (domain or fragment)", "values": [{"measurement": "Kd", "setting": "[2]", "result": 700, "unit": "nM"}]}, {"molecule": "tau (MAPT); tauC3 proteoform C-terminal 10-mer ending at D421 (from UniProt P10636-8) S416E peptide (…)", "values": [{"measurement": "other: CHIP apparent Tm", "setting": "[3]", "result": "weaker; reference 48.81 ± 0.11"}]}, {"molecule": "tau (MAPT); tauC3 proteoform tauC3, C-terminus at D421 (from UniProt P10636-8) GFP-tauC3 S416E", "values": [{"measurement": "other: relative CHIP bound, normalised to tauC3", "setting": "[4]", "result": 0.55}]}, {"molecule": "tauC3 (unmodified, produced from E. coli) (domain or fragment)", "values": [{"measurement": "Kd", "setting": "[5]", "result": 90, "unit": "nM"}, {"measurement": "Kd", "setting": "[2]", "result": 190, "unit": "nM"}]}, {"molecule": "tauC3 S416E (purified protein) (domain or fragment)", "values": [{"measurement": "Kd", "setting": "[5]", "result": 780, "unit": "nM"}]}, {"molecule": "tauC3, NanoBiT fusion expressed in HEK293T cells (domain or fragment)", "values": [{"measurement": "fold binding over FL tau", "setting": "[6]", "result": 5, "unit": "fold"}]}, {"molecule": "Ac-SSTGSIDMVD-OH", "note": "[acetylated 10-mer peptide corresponding to the tauC3 C-terminus (Ac-SSTGSIDMVD-OH)]", "values": [{"measurement": "Ki", "setting": "[7]", "result": "150 ± 20", "unit": "nM"}, {"measurement": "Ki", "setting": "[8]", "result": "5570 ± 340", "unit": "nM"}, {"measurement": "binding result", "setting": "[9]", "result": "binds"}]}, {"molecule": "Ac-SSTGEIDMVD", "note": "[pS416 phosphomimetic 10-mer tauC3 peptide (SSTGEIDMVD)]", "values": [{"measurement": "Ki", "setting": "[7]", "result": "2410 ± 330", "unit": "nM"}, {"measurement": "binding result", "setting": "[9]", "result": "binds"}, {"measurement": "binding result", "setting": "[10]", "result": "binds"}]}, {"molecule": "SSTG[pS]IDMVD", "note": "[tauC3 pS416 10-mer peptide]", "values": [{"measurement": "Ki", "setting": "[7]", "result": "1010 ± 990", "unit": "nM"}, {"measurement": "Ki", "setting": "[8]", "result": "1840 ± 230", "unit": "nM"}]}]}
